Results taken from patent US20210025877A1 (CYTOMX THERAPEUTICS, published 2021).

Biological target: T1, anti-PDL1 activatable antibody PL07-2001-C5H9v2 (intact)
T1 construct: In the Wes assay the sample is separated by SDS-based capillary electrophoresis before probing; also called AA
Test: Wes capillary electrophoresis immunoassay, mouse plasma

T1 sequence (heavy, as listed by the source, chain 1 of 2): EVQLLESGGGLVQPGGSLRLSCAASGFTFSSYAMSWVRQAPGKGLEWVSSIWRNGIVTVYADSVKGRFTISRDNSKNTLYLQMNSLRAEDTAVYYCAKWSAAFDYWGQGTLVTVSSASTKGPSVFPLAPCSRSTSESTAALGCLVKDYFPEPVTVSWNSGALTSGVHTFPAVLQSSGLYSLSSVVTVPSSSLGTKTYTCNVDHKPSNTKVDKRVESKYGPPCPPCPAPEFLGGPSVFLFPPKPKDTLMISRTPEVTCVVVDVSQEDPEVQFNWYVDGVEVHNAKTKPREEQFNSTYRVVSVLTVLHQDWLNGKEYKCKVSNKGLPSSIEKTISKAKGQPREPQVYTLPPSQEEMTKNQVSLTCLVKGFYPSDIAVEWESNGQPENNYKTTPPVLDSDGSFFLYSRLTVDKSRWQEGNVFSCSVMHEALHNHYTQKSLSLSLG
T1 sequence (light, as listed by the source, chain 2 of 2): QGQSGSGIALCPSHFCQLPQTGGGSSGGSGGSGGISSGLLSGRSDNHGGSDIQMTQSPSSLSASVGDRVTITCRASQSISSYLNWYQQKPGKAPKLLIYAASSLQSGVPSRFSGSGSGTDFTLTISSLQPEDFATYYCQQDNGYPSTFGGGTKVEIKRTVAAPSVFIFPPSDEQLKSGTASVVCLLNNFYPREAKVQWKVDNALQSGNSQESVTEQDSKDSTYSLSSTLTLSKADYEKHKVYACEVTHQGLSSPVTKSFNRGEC

binding result: binds
B1: anti-idiotypic antibody 17G1 (antibody, mouse IgG2a, kappa, V domains shown)
VH: EVQLVESGGDLVKPGGSLKVSCAASGFTFSSYGMSWVRQTPDKRLEWVATISPSGIYTYYPVTVKGRFTISRDNAKNTLYLQMSSLKSEDTAMYFCARHHPNYGSTYLYYIDYWGQGTALTVSS
VL: NIMMTQSPSSLAVSAGEKVTMACKSSQSVFSSSNQKNYLAWYQQKPGQSPKILIYWAFTRESGVPDRFSGSGSGTDFTLTISSVQAEDLAVYYCYQYLSSLTFGAGTKLEVKA
notes: Mouse monoclonal, mIgG2a heavy chain and mouse kappa light chain; also called anti-id antibody 17G1; anti-id 17G1 antibody
